In patent US11708609:

Molecular target: human recombinant FOXO1 (Origene #TP300477) (UniProt Q12778)
Sequence (Q12778 whole entry): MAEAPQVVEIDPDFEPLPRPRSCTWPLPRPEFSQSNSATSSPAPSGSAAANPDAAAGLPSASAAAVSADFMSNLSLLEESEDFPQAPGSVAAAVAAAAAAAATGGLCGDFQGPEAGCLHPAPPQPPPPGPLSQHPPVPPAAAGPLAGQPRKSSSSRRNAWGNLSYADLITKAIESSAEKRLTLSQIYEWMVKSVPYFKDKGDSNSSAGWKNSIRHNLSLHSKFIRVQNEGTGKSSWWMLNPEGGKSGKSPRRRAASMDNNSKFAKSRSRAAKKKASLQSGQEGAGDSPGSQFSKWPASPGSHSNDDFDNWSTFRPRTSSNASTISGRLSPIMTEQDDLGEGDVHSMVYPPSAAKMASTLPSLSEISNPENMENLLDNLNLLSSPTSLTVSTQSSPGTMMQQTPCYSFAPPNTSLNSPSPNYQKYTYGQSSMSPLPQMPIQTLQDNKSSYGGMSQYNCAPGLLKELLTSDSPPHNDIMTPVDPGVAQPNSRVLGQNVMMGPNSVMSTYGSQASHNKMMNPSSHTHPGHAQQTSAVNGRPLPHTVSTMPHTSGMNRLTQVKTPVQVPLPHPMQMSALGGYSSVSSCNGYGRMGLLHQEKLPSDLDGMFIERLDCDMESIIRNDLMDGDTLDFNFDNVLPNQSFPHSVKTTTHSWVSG

Chain of microtubule-associated Ser/Thr kinase 4 (MAST4), immunoprecipitated from lysates of neuron-differentiated SH-SY5Y cells or of human temporal lobe autopsy samples (chain, as listed by the source): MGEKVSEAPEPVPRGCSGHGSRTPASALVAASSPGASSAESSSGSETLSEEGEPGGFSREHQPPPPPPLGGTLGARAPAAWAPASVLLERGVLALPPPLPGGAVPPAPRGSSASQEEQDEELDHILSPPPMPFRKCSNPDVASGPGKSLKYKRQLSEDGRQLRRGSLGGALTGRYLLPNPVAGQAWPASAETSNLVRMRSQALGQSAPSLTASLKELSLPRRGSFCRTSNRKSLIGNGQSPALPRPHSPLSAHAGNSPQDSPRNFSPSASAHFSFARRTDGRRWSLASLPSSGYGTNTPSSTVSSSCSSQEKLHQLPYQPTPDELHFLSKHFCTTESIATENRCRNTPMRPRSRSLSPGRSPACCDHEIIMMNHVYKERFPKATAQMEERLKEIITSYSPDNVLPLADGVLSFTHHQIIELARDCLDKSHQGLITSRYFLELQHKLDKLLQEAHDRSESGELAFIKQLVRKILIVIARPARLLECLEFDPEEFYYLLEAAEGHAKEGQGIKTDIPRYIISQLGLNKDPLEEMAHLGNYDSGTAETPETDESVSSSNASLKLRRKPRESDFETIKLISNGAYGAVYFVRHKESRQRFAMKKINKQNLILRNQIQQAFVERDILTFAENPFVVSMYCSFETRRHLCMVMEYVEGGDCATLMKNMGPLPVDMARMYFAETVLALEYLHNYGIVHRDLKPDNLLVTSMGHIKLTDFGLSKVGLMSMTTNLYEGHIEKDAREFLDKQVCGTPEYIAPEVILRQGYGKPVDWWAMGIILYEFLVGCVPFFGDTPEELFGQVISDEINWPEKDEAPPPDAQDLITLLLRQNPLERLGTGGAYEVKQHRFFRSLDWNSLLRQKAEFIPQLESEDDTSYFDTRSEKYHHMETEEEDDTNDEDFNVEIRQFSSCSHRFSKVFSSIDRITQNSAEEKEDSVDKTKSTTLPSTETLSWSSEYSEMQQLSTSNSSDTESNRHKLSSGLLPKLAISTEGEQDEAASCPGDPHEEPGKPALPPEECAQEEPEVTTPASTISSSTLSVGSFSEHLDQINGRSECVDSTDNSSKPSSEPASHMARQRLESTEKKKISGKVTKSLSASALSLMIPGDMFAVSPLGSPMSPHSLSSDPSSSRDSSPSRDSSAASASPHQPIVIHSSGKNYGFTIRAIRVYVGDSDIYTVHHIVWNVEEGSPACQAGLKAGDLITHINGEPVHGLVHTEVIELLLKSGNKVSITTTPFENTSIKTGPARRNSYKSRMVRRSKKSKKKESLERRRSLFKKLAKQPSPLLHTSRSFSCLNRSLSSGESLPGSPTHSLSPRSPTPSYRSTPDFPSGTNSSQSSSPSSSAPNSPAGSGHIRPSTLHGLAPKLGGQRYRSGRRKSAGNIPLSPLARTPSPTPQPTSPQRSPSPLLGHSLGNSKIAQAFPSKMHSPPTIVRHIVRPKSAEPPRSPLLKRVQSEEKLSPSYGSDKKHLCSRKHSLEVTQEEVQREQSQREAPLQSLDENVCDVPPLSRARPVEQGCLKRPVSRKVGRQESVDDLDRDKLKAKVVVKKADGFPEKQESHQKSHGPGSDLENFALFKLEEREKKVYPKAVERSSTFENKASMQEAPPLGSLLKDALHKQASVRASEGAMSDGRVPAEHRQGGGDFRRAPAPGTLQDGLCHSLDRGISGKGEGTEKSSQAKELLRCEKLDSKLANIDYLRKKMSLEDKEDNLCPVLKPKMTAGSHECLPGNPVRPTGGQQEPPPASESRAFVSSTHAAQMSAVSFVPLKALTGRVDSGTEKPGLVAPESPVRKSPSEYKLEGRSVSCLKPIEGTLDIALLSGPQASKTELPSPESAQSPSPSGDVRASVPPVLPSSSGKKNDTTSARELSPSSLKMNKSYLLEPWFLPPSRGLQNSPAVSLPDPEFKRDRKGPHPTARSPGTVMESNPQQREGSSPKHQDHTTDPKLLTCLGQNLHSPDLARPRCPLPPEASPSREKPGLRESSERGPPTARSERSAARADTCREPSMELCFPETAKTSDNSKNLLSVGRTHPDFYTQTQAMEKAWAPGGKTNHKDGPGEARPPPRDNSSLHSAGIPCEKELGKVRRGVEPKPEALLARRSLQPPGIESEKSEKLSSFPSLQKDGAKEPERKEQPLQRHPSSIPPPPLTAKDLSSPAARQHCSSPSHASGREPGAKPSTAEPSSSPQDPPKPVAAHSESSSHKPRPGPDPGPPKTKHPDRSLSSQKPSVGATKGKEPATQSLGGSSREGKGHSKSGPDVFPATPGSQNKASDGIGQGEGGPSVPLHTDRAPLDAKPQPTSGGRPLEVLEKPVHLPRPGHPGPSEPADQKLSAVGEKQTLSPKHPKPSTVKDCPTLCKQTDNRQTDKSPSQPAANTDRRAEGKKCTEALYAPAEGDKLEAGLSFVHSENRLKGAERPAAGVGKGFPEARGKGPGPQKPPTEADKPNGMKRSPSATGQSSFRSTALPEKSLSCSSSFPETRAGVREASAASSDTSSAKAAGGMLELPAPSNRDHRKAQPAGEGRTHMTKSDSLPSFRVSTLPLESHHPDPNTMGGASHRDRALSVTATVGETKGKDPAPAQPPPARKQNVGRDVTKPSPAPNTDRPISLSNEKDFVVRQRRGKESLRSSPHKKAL

Row | Substance | FOXO1 phosphorylation in an in vitro kinase assay with immunoprecipitated MAST4 mutant | FOXO1 phosphorylation (pSer-FOXO1) in an in vitro kinase assay with immunoprecipitated MAST4 and recombinant FOXO1
1 | MAST4E682A, putative kinase-null MAST4 mutant | Immunoprecipitates of MAST4E682A did not phosphorylate FOXO1 (not shown) | 
2 | microtubule-associated Ser/Thr kinase 4 (MAST4), immunoprecipitated from lysates of neuron-differentiated SH-SY5Y cells or of human temporal lobe autopsy samples |  | Increased FOXO1 phosphorylation was observed in MAST4 immunoprecipitates from cells treated with 5 µM but not 50 µM 27OHC
